In PMC5241874:

B1: αγ heterodimer of human NAD-IDH (IDH3) (Homo sapiens) (protein)
chain 1: TGGVQTVTLIPGDGIGPEISAAVMKIFDAAKAPIQWEERNVTAIQGPGGKWMIPSEAKESMDKNKMGLKGPLKTPIAAGHPSMNLLLRKTFDLYANVRPCVSIEGYKTPYTDVNIVTIRENTEGEYSGIEHVIVDGVVQSIKLITEGASKRIAEFAFEYARNNHRSNVTAVHKANIMRMSDGLFLQKCREVAESCKDIKFNEMYLDTVCLNMVQDPSQFDVLVMPNLYGDILSDLCAGLIGGLGVTPSGNIGANGVAIFESVHGTAPDIAGKDMANPTALLLSAVMMLRHMGLFDHAARIEAACFATIKDGKSLTKDLGGNAKCSDFTEEICRRVKDLD
chain 2: FSEQTIPPSAKYGGRHTVTMIPGDGIGPELMLHVKSVFRHACVPVDFEEVHVSSNADEEDIRNAIMAIRRNRVALKGNIETNHNLPPSHKSRNNILRTSLDLYANVIHCKSLPGVVTRHKDIDILIVRENTEGEYSSLEHESVAGVVESLKIITKAKSLRIAEYAFKLAQESGRKKVTAVHKANIMKLGDGLFLQCCREVAARYPQITFENMIVDNTTMQLVSRPQQFDVMVMPNLYGNIVNNVCAGLVGGPGLVAGANYGHVYAVFETATRNTGKSIANKNIANPTATLLASCMMLDHLKLHSYATSIRKAVLASMDNENMHTPDIGGQGTTSEAIQDVIRHIRVINGRAVEA
notes: alpha and gamma co-expressed in E. coli BL21(DE3) from pQlinkN; gamma C-terminal TEV-His6, His6 cleaved by TEV; 80 kDa heterodimer (dimer of heterodimers at high concentration)
B2: αγ heterodimer of human NAD-IDH (IDH3) (Homo sapiens; P50213:N202A) (protein)
chain 1: TGGVQTVTLIPGDGIGPEISAAVMKIFDAAKAPIQWEERNVTAIQGPGGKWMIPSEAKESMDKNKMGLKGPLKTPIAAGHPSMNLLLRKTFDLYANVRPCVSIEGYKTPYTDVNIVTIRENTEGEYSGIEHVIVDGVVQSIKLITEGASKRIAEFAFEYARNNHRSNVTAVHKAAIMRMSDGLFLQKCREVAESCKDIKFNEMYLDTVCLNMVQDPSQFDVLVMPNLYGDILSDLCAGLIGGLGVTPSGNIGANGVAIFESVHGTAPDIAGKDMANPTALLLSAVMMLRHMGLFDHAARIEAACFATIKDGKSLTKDLGGNAKCSDFTEEICRRVKDLD
chain 2: FSEQTIPPSAKYGGRHTVTMIPGDGIGPELMLHVKSVFRHACVPVDFEEVHVSSNADEEDIRNAIMAIRRNRVALKGNIETNHNLPPSHKSRNNILRTSLDLYANVIHCKSLPGVVTRHKDIDILIVRENTEGEYSSLEHESVAGVVESLKIITKAKSLRIAEYAFKLAQESGRKKVTAVHKANIMKLGDGLFLQCCREVAARYPQITFENMIVDNTTMQLVSRPQQFDVMVMPNLYGNIVNNVCAGLVGGPGLVAGANYGHVYAVFETATRNTGKSIANKNIANPTATLLASCMMLDHLKLHSYATSIRKAVLASMDNENMHTPDIGGQGTTSEAIQDVIRHIRVINGRAVEA
notes: as for B1
B3: αγ heterodimer of human NAD-IDH (IDH3) (Homo sapiens; P50213:K200A) (protein)
chain 1: TGGVQTVTLIPGDGIGPEISAAVMKIFDAAKAPIQWEERNVTAIQGPGGKWMIPSEAKESMDKNKMGLKGPLKTPIAAGHPSMNLLLRKTFDLYANVRPCVSIEGYKTPYTDVNIVTIRENTEGEYSGIEHVIVDGVVQSIKLITEGASKRIAEFAFEYARNNHRSNVTAVHAANIMRMSDGLFLQKCREVAESCKDIKFNEMYLDTVCLNMVQDPSQFDVLVMPNLYGDILSDLCAGLIGGLGVTPSGNIGANGVAIFESVHGTAPDIAGKDMANPTALLLSAVMMLRHMGLFDHAARIEAACFATIKDGKSLTKDLGGNAKCSDFTEEICRRVKDLD
chain 2: FSEQTIPPSAKYGGRHTVTMIPGDGIGPELMLHVKSVFRHACVPVDFEEVHVSSNADEEDIRNAIMAIRRNRVALKGNIETNHNLPPSHKSRNNILRTSLDLYANVIHCKSLPGVVTRHKDIDILIVRENTEGEYSSLEHESVAGVVESLKIITKAKSLRIAEYAFKLAQESGRKKVTAVHKANIMKLGDGLFLQCCREVAARYPQITFENMIVDNTTMQLVSRPQQFDVMVMPNLYGNIVNNVCAGLVGGPGLVAGANYGHVYAVFETATRNTGKSIANKNIANPTATLLASCMMLDHLKLHSYATSIRKAVLASMDNENMHTPDIGGQGTTSEAIQDVIRHIRVINGRAVEA
notes: as for B1

Substrate: O=C(O)CC(C(=O)O)C(O)C(=O)O
Assay: purified protein
Type: biochemical, Homo sapiens
Conditions: no activators, 2 mM Mn2+, 3.2 mM NAD, 33 mM Tris-acetate pH 7.4, 25 °C, Hill 2.0, racemic DL-ICT varied

Row | Protein | K0.5 | kcat/Km | K0.5 (Hill 1.2) | kcat/Km (Hill 1.2)
1 | B1 | 4.49 ± 0.15 mM | 2160 ± 30 M⁻¹ s⁻¹ | – | –
2 | B2 | – | – | 5.80 ± 0.84 mM | 290 ± 10 M⁻¹ s⁻¹
3 | B3 | – | – | 6.38 ± 1.27 mM | 380 ± 30 M⁻¹ s⁻¹
